Experimental findings from patent US20190177376A1 are described below.

The test addresses human IgG (human). The experiment in a line: ELISA, IgG coated on plate, detection with Strep-Tactin-HRP.

For domain B (from UniProt P38507 212-269), the Kd (usually a measure of binding affinity in units of concentration) was 3.1 nM.
